Data set [1] concerns the target T1, AcABI5a-His (Actinidia chinensis? (cv. 'Donghong'), UniProt A0A2R6QW13 1-413).
T1 sequence: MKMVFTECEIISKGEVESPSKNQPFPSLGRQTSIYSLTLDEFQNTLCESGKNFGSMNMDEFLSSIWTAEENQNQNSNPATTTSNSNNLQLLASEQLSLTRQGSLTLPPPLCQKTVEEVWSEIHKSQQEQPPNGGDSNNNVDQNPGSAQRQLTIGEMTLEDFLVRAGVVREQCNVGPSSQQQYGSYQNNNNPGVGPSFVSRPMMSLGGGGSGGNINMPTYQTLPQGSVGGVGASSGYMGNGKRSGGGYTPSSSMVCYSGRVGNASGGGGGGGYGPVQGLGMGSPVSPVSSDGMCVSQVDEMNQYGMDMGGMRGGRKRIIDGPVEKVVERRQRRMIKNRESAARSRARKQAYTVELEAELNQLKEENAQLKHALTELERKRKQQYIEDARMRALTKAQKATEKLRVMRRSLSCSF
Briefly: EMSA; EMSA in polyacrylamide gels with FAM probes; buffer, salt, pH and temperature not stated (refers to Hou et al. [71]). To be noted: protein: recombinant; tags: 6xHis at N- and C-terminus (pET-32a); fusion 65 kDa; chain copies: 2; label: FAM (on F strand); blunt. On the technique in general: A gel shift assay detects complexes by their altered migration in electrophoresis.

For data set [2], the target named is T1, AcABI5a-His. As to the kind of experiment: EMSA; unlabeled competitor weakens the band; EMSA in polyacrylamide gels with FAM probes; buffer, salt, pH and temperature not stated (refers to Hou et al. [71]). To be noted: protein: recombinant; tags: 6xHis at N- and C-terminus (pET-32a); fusion 65 kDa; chain copies: 2; label: FAM (on F strand); blunt.

B1: AcMYBS1 mutant probe (dsDNA)
DNA 1: ATATTTTGTTAAAAAAATTAGAAGTTCA
DNA 2: TGAACTTCTAATTTTTTTAACAAAATAT
Take B1: the binding result in the data set with AcABI5a-His [1] is on record as “no binding”.

B2: AcABI5a promoter G-box probe (dsDNA)
DNA 1: GCACCCTTGTAGACGTGAAATTGTAAGA
DNA 2: TCTTACAATTTCACGTCTACAAGGGTGC
Regarding B2, the binding result with AcABI5a-His [2] is recorded as “binds”.

B3: AcMYBS1 promoter G-box probe (dsDNA)
DNA 1: ATATTTTGTTATACGTGTTAGAAGTTCA
DNA 2: TGAACTTCTAACACGTATAACAAAATAT
Consider B3, for which the binding result with AcABI5a-His [2] is “binds”.

B4: AcABI5a promoter mutant probe (dsDNA)
DNA 1: GCACCCTTGTAAAAAAAAAATTGTAAGA
DNA 2: TCTTACAATTTTTTTTTTACAAGGGTGC
As for B4, in the data set with AcABI5a-His [1], the binding result is on record as “no binding”.

These data come from paper PMC12258035, “AcABI5a integrates abscisic acid signaling to developmentally modulate fruit ascorbic acid biosynthesis in kiwifruit”.
